Laboratory results reported in publication doi:10.1101/2023.05.30.542953.

Target: Lactobacillus helveticus chlorogenic acid esterase (LhCE), wild type (Lactobacillus helveticus)
Assay: crystal structure

stoichiometry N: 2
Substance: Lactobacillus helveticus chlorogenic acid esterase (LhCE), wild type (enzyme)
